# Reference: patent US7691579B2, “Methods and compositions for producing an enhanced immune response to a human papillomavirus immunogen” (priority 2005, dated 2010)
# Several values for one entry are separate records, joined by “and”; a condition that tells them apart may be missing. Equal values may be shown once.
# B1: IL-2: murine IL-2 (Preprotech) (protein, UniProt P04351 21-169, looked up)
# Interleukin-2: APTSSSTSSSTAEAQQQQQQQQQQQQHLEQLLMDLQELLSRMENYRNLKLPRMLTFKFYLPKQATELKDLQCLEDELGPLRHVLDLTQSKSFQLEDAENFISNIRVTVVKLKGSDNTFECQFDDESATVVDFLRRWIAFCQSIISTSPQ
# B2: GM-CSF: murine granulocyte/macrophage colony stimulating factor (Preprotech) (protein, UniProt P01587 18-141, looked up)
# Granulocyte-macrophage …: APTRSPITVTRPWKHVEAIKEALNLLDDMPVTLNEEVEVVSNEFSFKKLTCVQTRLKIFEQGLRGNFTKLKGALNMTASYYQTYCPPTPETDCETQVTTYADFIDSLKTFLTDIPFECKKPGQK
# Experiments:
# HPV16 pseudovirus = assay: Quantitative HPV16 pseudovirus neutralization assay with sera of vaccinated rabbits; type: in vivo; conditions: individual vaccinated rabbits
# Text: Development of Antibody Response to L1-VLP: To analyze the effect of the GM-CSF/anti-CD40 antibody combination on antibody response, an ELISA assay was employed to measure the titre of anti-L1-VLP antibodies in mice immunized with the chimeric L1-VLP-L2-E2-E7 construct, with or without the GM-CSF/anti-CD40 antibody combination. Both groups of mice produced high titers of anti-L1 VLP antibodies (FIG. 9). There is no detectable anti-L1 VLP antibody in the serum of mice immunized with E7 peptide in combination with GM-CSF and anti-CD40 in IFA, as expected. […] To confirm the prophylactic potential of the chimeric L1-VLP-L2-E7-E2 construct, the anti body titers raised against the chimeric L1-VLP-E7 E2 construct and the L1-VLPs were compared using a recently developed quantitative HPV16 pseudovirus neutralization assay. […]
# To test whether the combination of VLP-E7E2 with immune-modulators affects the antibody response, the titer of anti-L1-VLP antibodies was evaluated by ELISA. […] To confirm the prophylactic potential of the chimeric VLPs, we compared the antibody titers raised against the chimeric VLP-E7E2 and wild type VLPs, using a recently developed quantitative HPV16 pseudovirus neutralization assay. […]
# [1] = test system: EL-4 target cells pulsed with E7 49-57 peptides; assay: CTL assay (51Cr release) with spleen cells of immunized C57BL/6 mice; type: in vivo; conditions: given in aqueous solution with VLP-E7E2
# Method: (§1) Immunization: Mice were immunized subcutaneously at the base of the tail with the chimeric VLPs. GM-CSF (Preprotech, Rocky Hill, N.J.) was given the day before and the same day as the VLP injection. Anti-CD40 (SouthernBiotech, Birmingham Ala.) was given with the VLP. Mice were also immunized with 50 nmoles of peptide in incomplete Freund's adjuvant (IFA) with or without GM-CSF (5 μg/mouse) and anti-CD40 (10 μg/mouse). All vaccines were prepared immediately prior to injection. Each group had 4 mice, and the pooled spleen cells from four mice were used for assays. 10 μg of VLP-E7E2 was given to a mouse. The MW of the VLP-E7E2 is about 5280 Kd (72×L1@55 Kd=3960 Kd, and 12×L2E7E2@110 kd=1320 Kd). The number of moles of VLP-E7E2 in 10 μg of total protein is about […].
# (§2) CTL assay: Two (or three) weeks after immunization, spleens were aseptically removed and single cell suspensions are prepared. […] Cytolytic activity of cells is measured by a 4-h assay with ^51Cr-labeled EL-4 or C1R.AAD target cells in triplicate wells. Percent ^51Cr release is calculated as 100×(experimental release-spontaneous release)/(maximum release-spontaneous release). Maximum release is determined from supernatants of cells that are lysed by addition of […]. Spontaneous release is determined from target cells culture in medium. Data are expressed as an average from triplicate wells. […]
# [2] = test system: C1R.AAD target cells pulsed with E7 11-20 and E7 86-93 peptides; assay: CTL assay (51Cr release) with spleen cells of immunized AAD mice, response to E7; type: in vivo, HLA-A2 transgenic mice (AAD); conditions: co-injected in aqueous solution
# Method: as §1, §2
# CD11c+ dendritic cells = assay: FACScan analysis of dendritic cells in draining lymph nodes of immunized mice; type: in vivo, HLA-A2 transgenic mice (AAD); conditions: in VLP-E7E2 immunized mice, aqueous solution
# Method: Draining lymph nodes were collected six days after immunization for FACScan analysis. Mice are immunized with 10 μg of chimeric VLP-E7 with or without GM-CSF or an anti-CD40L antibody. Draining inguinal lymph nodes are collected one week after immunization for FACScan analysis. The immunization protocols employed are as follows: Panel A—VLP-E7; Panel B—VLP-E7F+GM-CSF; Panel C—VLP-E7+anti-CD40 antibody; Panel D—VLP-E7+GM-CSF+anti-CD40 antibody. For Data 003, 010, 017, and 024, the percentage of gated is the sum of the number from the upper left and upper right quadrants. For the rest of the data, the percentage of gated is the number from the upper right quadrant indicating the CD80, CD 86 and CD40 positive cells.
# Flow cytometric analysis and Abs: Lymph node cells (1×10^6) are taken from mice one week after immunization. […] Data files are analyzed using CellQuest software (BD Biosciences, Mountain View, Calif.).
# DCS Play An Important Role In VLP-E7E2/GM-CSF/Anti-CD40 Induced CTL Response In Vivo: It is known that GM-CSF and anti-CD40 play important roles in DC activation (Gurunathan, S. et al. 1998 J. Immunol. 161:4563-4571; Ahlers, J. D. et al. 1997 PNAS USA 94:10856-10861). […] In the Examples reported herein, the phenotypic changes of DC in the draining lymph nodes (DLN) of vaccinated mice were analyzed. […]
molecule,measurement,setting,value
"L1-VLP: VLP of the full length L1 capsid protein of HPV16, control",neutralizing titers,HPV16 pseudovirus; listed as L1-VLP construct,"40,960 and 163,840"
same,neutralizing titers,HPV16 pseudovirus; listed as wild type VLPs,"163,840"
B1,effect on the VLP-E7E2 induced CTL response,[1],no effect
same,effect of co-injection on the VLP-E7E2-induced CTL response to E7,[2],no effect
B2,effect on the VLP-E7E2 induced CTL response,[1],no effect
same,effect of co-injection on the VLP-E7E2-induced CTL response to E7,[2],no effect
same,recruitment or activation of the DCs,CD11c+ dendritic cells,no effect
